Like-named read-outs stand apart in the source and are kept apart here.

Common to all, as to experiment: ITC
A general note: Isothermal titration calorimetry measures the heat released or taken up as one component is titrated into another.

Test [1] has as its target RanGDP (wild-type Ran, GDP-bound) (Rattus norvegicus, UniProt P62828 1-216).
The target of test [2] is T1, RanGDP (wild-type Ran, GDP-bound) (Rattus norvegicus, UniProt P62828 1-216). This is another data set of the same source.
Test [3] addresses T1, RanGDP (wild-type Ran, GDP-bound). This is another data set of the same source.

B1: Nup153-ZnF4D8Q (domain or fragment)
chain: GPLGSGSWQCEVCLVQNKADSTKCIACESAKPGTKSEFKGFGT
Turning to B1, binding in test [1] was characterised by a dissociation constant (Kd) of 3 µM.

B2: Nup153-ZnF1 (domain or fragment)
chain: AGSSWQCDTCLLQNKVTDNKCIACQAAKL
In the case of B2, in test [2], the Kd (in general, the constant that tells how readily two partners part at equilibrium) was found to be 6 µM.

B3: Nup153-ZnF3 (domain or fragment)
chain: VGSWECPVCCVSNKAEDSRCVSCTSEKP
Regarding B3, binding in test [2] was put at a Kd of 7 µM.

B4: Nup153-ZnF4 (domain or fragment)
chain: GSWDCEVCLVQNKADSTKCIACESAKPGTKSEFKGFGT
Molecule B4 showed a Kd in test [3] of 47 µM.

B5: Nup153-ZnF2 (domain or fragment)
chain: GTWDCDTCLVQNKPEAVKCVACETPKPG
Consider B5, for which the Kd in test [3] came to 49 µM.

B6: Nup358-ZnF12 (domain or fragment)
chain: KEGSWWHCNSCSLKNASTAKKCVSCQNLNPSNKELVGPPLAETVFTPKTSPENVQDRFALVTPKKEGHWDCSICLVRNEPTVSRCIACQNTKSA
As for B6, binding in test [3] was put at a Kd of 15 µM.

These data come from article PMC2716403 (Journal of molecular biology, 2009).
